Consider three molecules from publication PMC10878280 (Journal of Virology, 2024).

B1: FI6v3 IgG (antibody, V domains shown)
VH: QVQLVESGGGVVQPGRSLRLSCAASGFTFSTYAMHWVRQAPGKGLEWVAVISYDANYKYYADSVKGRFTISRDNSKNTLYLQMNSLRAEDTAVYYCAKDSQLRSLLYFEWLSQGYFDYWGQGTLVTVSS
VL: not shown
notes: not shown: ybbR, C-terminal, kept; copies: 2 + 2
B2: C05 IgG (antibody, V domains shown)
VH: QVQLQESGGGLVQPGESLRLSCVGSGSSFGESTLSYYAVSWVRQAPGKGLEWLSIINAGGGDIDYADSVEGRFTISRDNSKETLYLQMTNLRVEDTGVYYCAKHMSMQQVVSAGWERADLVGDAFDVWGQGTMVTVSS
VL: DIQLTQSPSSLSASVGDRVTLTCQASQDIRKFLNWYQQKPGKGPKLLIYDASNLQRGVPSRFSGGGSGTDFTLIISSLQPEDVGTYYCQQYDGLPFTFGGGTKVVIK
notes: as for B1
B3: S139\1 IgG (antibody, V domains shown)
VH: QVQLQQSGTELKKPGASVKISCKATGYTFSSYWIEWIKQRPGHGLEWIGEILPEIGMTNYNENFKGKATFTANTSSNTVYMQLSSLTSEDSAVYYCARPYDYSWFAYWGQGTLVTVSA
VL: DIVMTQSQKFMSTSVGDRVSVTCKASQNVDTNVAWYQEKPGQSPKTLIYSASNRYSGVPDRFTGSASGTDFTLTITNVQSEDLAEYFCQQYNSYPYTFGGGTKLEIK
notes: as for B1

This assay addresses T1, hemagglutinin (HA) of A/WSN/1933, on transfected HEK-293T cells (Influenza A virus A/WSN/1933 (H1N1), UniProt P03454).
T1 construct: source: HEK-293T, transfected with HA-expressing plasmid, on cells
Put plainly: fluorescence imaging with FRAP of labelled antibody on transfected cells. As to conditions: one partner purified.
With B1, the binding result was “binds”.

As to B2, the binding result is on record as “binds”.

As to B3, the binding result is on record as “binds”.
